Test results from the nanobody polyreactivity screen of Harvey et al. (2022).

Assay: yeast display, Sf9 membrane polyspecificity reagent, FACS + sequencing; frameworks hold sequencing errors
Outline: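 Nanobodies from a synthetic yeast display library (Saccharomyces cerevisiae BJ5465), induced 36–48 hours with galactose, were stained 1 hour at 4 °C with 10% biotinylated, detergent-solubilized Sf9 membrane reagent, enriched on streptavidin microbeads, then FACS-sorted. Anti-HA (expression) and streptavidin (reagent binding) fluorescence set low and high (top ~1%) gates. Polyreactivity labels come from the gate of origin. Genes were colony-PCR amplified, MiSeq 2 × 250 sequenced and filtered by CDR length.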

Sequence	polyreactivity (PSR sort gate)
QVQLVESGGGLVQAGGSLRLSSAGSGSTFIIYAMGWYRQAPGKERELVAAISWSGGSTYYADSVKGRFTISRDNAKNTVYLQMNSLKPEDTEVYYWAVVYRTRWSDYDYWGQGTQVTVSS	low polyreactivity
QVQLVESGGGLVQAGGSHRLSCAASGSTFVPYTMGWYRQAPGKERELVAAISGSGGTDYADSVKGRFTISRDNAKNTVYLQMNSLKPEDTAVYYCATDGLDFWFIYDYWGQGTQVTVST	low polyreactivity
QVQLVESGGGLVQAGGSLRLSCAASGSTFQWNAMGWYRQAPGKERELVASITDSGGRTYYADSVKGRFTISRDNAKNTVYLQMNSLKPEDTAVYYCAAVSLWWSDYYFVEYDYWGQGTQVTVSS	high polyreactivity
QVQLVESGGGLVQAGGSLRLIFAASGRTFVLNAMRWYRQAPGKEREFVAAISWGGVRTYYADSVKGRFTISRDNAKNTVYLQMNSLKPEDTAVYYCATCGSRYRRYDYWGQGTQVTVSS	high polyreactivity
QVQLVESGGGLVQAGGSLRLSCAASGYIFYTYAMGWYRQAPGKERELVASIDSGGSTNYADSVKGRFTISRDNAKNTVYLQMNSLKPEDTAVYYCAADVIVRVYYYYYVLMDYWGHGTQVTVSS	low polyreactivity
QVHLVESGGGLVQAGGSHRLSCASSGFIFYFYTMGWYRQAPGKERELVAGITWLDGSTYYADSVKGRFTISRDNAKNTVYLQMNSLKPEDTAVYYCAVDYDLVVSPYYYWGQGTQVTVSS	low polyreactivity
QVQLVESGGGLVQAGGSLRLICAASGSIFGDTAMAWYSQAPGKERELVATISSSDASTYYADSVKGRFTSSRDNAKNTVYLQMNSVKREDSAVYYCAKEVNAGYHVWYDYWGEGTQVTVSS	low polyreactivity
QVQLVESGGGLVQAGGSLRLSCAASGYIFYRYAMGWYRQAPGKEREFVASITKRGGRTFYADSVKGRFTISRDNAKNTVYLQMNSLKPEDTAVYYCARKAEYGTDMGYWGQGTQVTVSS	high polyreactivity
QVQLVESGGGLVQAGGSLRLSCAASGFTFDNYTMGWYRQAPGKERELVAAITSSAGSTDYADSVKGRFTISRDNAKNTVYLQMNSLKPEDTAVYYCNDDFLYGTYDYWGQGTQVTVSS	low polyreactivity
QVQLVESGGGLVQAGGSLRLICAASGRTFAINTMGWYRQAPGKERELVATISGSAGNTYYADSVKGRFTISRDNAKNTVYVQMNSLKPEDSAVYSCAARQRKARQIVLLDYWGQGTQVTVSS	high polyreactivity
QVQLVESGGGLVQAGGSLRLSSAASGFTFASYAMGWYRQAPGKERELVAAIDSDDSTNYADSVKGRFTISRDNAKNTVYLHMNSLKPEDTSVYYCAADEGPYYGIYEYYYWGQGTQVTVSS	high polyreactivity
QVQLVESGGGLVQAGGSLRLSCAASGSIFRRNAMGWYRQAPGKERELVAAISQSGGSTYYADSVKGRFTISRDNAKNTVYLQMNSLKPEDTAVYYCAAKAHTVGGYAYYHTSTYYWGQGTQVTVSS	high polyreactivity
QVQLVESGGGLVQAGGSLRIRCAASGSIFWYNAMGWYRQAPGKERELVAAISYRGGSTYYADSVKGRFTISRDNAKNTVYLQMNSLKPEDTAVYYCAAEYGDVYVWTYDYWGQGTQVTVSS	high polyreactivity
PVQLVESGGGLVQAGGSLRLSCAASGSNFEYYTMGWYRQAPGKERELVATISRSADRTYYADSVKGRFTISRDYAKNTVYLQMNILKPEDTAVYDCAKLYPRTTQWIYDYWGQGTQVTVSS	high polyreactivity
QVQLVESGGGLVQAGGSLRLSCAASGRIISHNAMGWYRQAPGKERELVAVISNGGSTYYADSVKGRFTISRDNAKNTVYLQMNSLKPEDTAVYYCAARYTPQSGFYYRGQGTQVTVSS	low polyreactivity
HVQLVESGGGLVQAGGSLRLSCAASGRTFGIYAMGWYRHAPGKQRELVAAISKIGTRTYYADSVKGRFTISRDNAKNTVYLQMNSLNPEDTAVYYCAAYPVDAVYQAYRYPYYDEMDYWGQGTQVTVSS	low polyreactivity
QVQIVESGGGLFQAGGSLRLSCAASGGIFREYAMGWSRQAPGKERELVAVISDSGAGTYYADSVKGRFTISRDNAKNTVSLQMNSLKPEDTEVYYCAQGTARLDFPDMDPWGQGTQVTVSS	low polyreactivity
QVQLVESGGGLVQAGGSLRLSCAASGSTFWFYAMGWYRQAPGKERELVATITIGGRTYADSVKGRFTISRDNAKNTVYLQMNTLKPEDTAVYYCAARRGRLEYVNGRYDYWGQGTQVTVSS	low polyreactivity
QVQLVESGGGLVQAGGSLRLSCAASGRIFYPYAMGWYRQAPGKERELVAAISYSGGSTFYADSVKGRFTISRDNAKNTVYLQMNSLKPEDTAVYYCIKPGLYIYGSWGQGTQVTVSS	high polyreactivity
QVQLVESGGGLVQAGGSLRLSCAASGSTFPYYAMGWYRQAPGKERELVAAISQNGGSTYYADSVKGRFTISRDNAKNTVYLQMNSLKPEDTAVYYCNADGVGGEYRLSGYDYWGQGTQVTVSS	low polyreactivity
QVQLVESGGGLVQAGGSLRLSCAASGRTFVYYAMGWYRQAPGKERELVASISSNGGTYYADSVKGRFTISRDNAKNTVYLQMNSLKPEDTAVYYCNAKRVARYQYGASYNYWGQGTQVTVSS	high polyreactivity
QVQLVDSGGGLVQAGGSLRLSCAASGSTFDVYAMGWYRQAPGKERELVAVINTSGTRTYYADSVKGRFTISRDNAKNTVYLQMNSLKPEDTEVYYCNAGGHLEMNYWGQGTQVTVSS	low polyreactivity

Sequence	polyreactivity (PSR sort gate)
QVQLVESGGGLVQAGGSLRLSCAASGRTFGIYAMGWYRQAPGKERELVAAITWSGDSTYYADSVKGRVTISRDNAKNTVYLQMNSLKPEDTAVYYGAADYVGVTSVRYDYWGQGTQVTVSS	low polyreactivity
QVQLVESGGGLVQAGGSLRLSCAASGRIFWSYAMGWYRQAPGKEREFVAVITWSGGSTYYADSVKGRFTISRDNAKNTVYLQMNSLKPEDTAVYYCADGQWWYQVRFDYWGQGTQVTVSS	low polyreactivity
QVQLVESGGGLVQAGGSIRLTCAASGTIFPYYAKGWYRQAPGKERELVAAISDSGDSTYYADSVKGRFTISRDNAKNTVYLQMNSLKPEDTAVYYCAADQTSSYYDPWGDYWGQGTQVTVSS	low polyreactivity
QVQHVESGGGLFKAGGTLRLSCAASGRTIYPYAMVLYIQAPGKESELVAAIRWSGGSTYYADSVKGRFTISRDNSKNTVYLQMNSLKPVDTAVYYCNADWKSYRGPIVDYWGQGTQVSVSS	low polyreactivity
QVQLVESGGGLVQAGGSLRLSCAASGGIFSRYAMGWYRQAPGKEREFVAAISFSGASTYYADSVKGRFTISRDNAKNTVYLQMNSLKPEDTAVYYCAAYWDAEGRRYTRLDYWGQGTQVTVSS	low polyreactivity
QVQLVESGGGLVQAGGSLRLSCAASGRIFRVYAMGWYRQEPGKERELVAGISFRGASTYYADSVKGRFTISRDNAKNTVYLQMNSLKPEDTAVYYCAAALPVQYRDMYSWGQGTQVTVSS	high polyreactivity
QVQLVESGGGLVQAGGSLRLSCAASGRIFSFYAMGWKRQAPGKERELVAAITWGDGSTYYADSVKGRFTISRDNAKNTVYLQMNSLKPEDTAVYYCNKTYIDTTVYDVIMDYWGQGTQVTVSS	low polyreactivity
QVQLVESGGGLVQAGGSLRLSCAASGSIIGDNAMGWYRPAPGKERELVAAITGGDSTYYADSVKGRFTISRDNAKNTVYLQMNSLKPEDTAVYYCNADRFRGRTVDGDYWGQGTQVTVSS	low polyreactivity
QVQLVESGGGLVQAGGSLRLSCAASGLTFHRYAMGWYRPAPGKERELVAGISWSGASTYYADSVKGRFTISRDNAKNTVYLQMNSLKPEDTAVYYCAARRYYKYDWGQGTQVTVSS	high polyreactivity
QVQLQESGGGLVHAGGSLRLSCAASVTISFINMMGWYRQAPGRERELDASINFGANTNYADSVKGRFTISRDNAKNSVYLQMNSLKPEDTAVYYCAVYDFDAYTLYYWGQGTLVTVSS	high polyreactivity
QVQLVESGGGLVQAGGSLRLSCAASGRIFSRNAMGWYRQAPGKERELVAAITRIGGSTYYADSVKGRFTISRDTAKNTVYLQMNSRKPEDTAVYYSAARGSGKYGWGQGTQVTVSS	high polyreactivity
QVQLVESGGGLVQAGGSLRLSCAASGSIFAANAMGWYRQAPGKERELVADITKSGGSTYYADSVKGRFTISRDNAKNTVYLQMNSLKPEDTAVYYCNADDTQLESFAPGHGYDYWGQGTQVTVSS	low polyreactivity
QVQLVESGGGLVQAGGSLRLSCAASGLTFTGYAMGWYRQAPGKERELVASISSRGGSTYYADSVKGRFTISRDNAKITVYLQMNSLKPEDTAVYYCNAVYRGYYSGELDYWGQGTQVTVSS	high polyreactivity
QVQLVESGGGLVQAGGSLRLSCAASGSTFPSYAMGWYRQAPGKERELVAAISRRSSRTYYADSVKGRFTISRDNAKNTVYLQMNSLKPEDTAVYYCNADAGRHSDEYGYDYWGQGTQVTVSS	high polyreactivity
QVQLVESGGGLVQAGGCLRLSCAASGSTFPIYDMGWYRQAPGKERELVAAITYSGGSTNYADSVKRRFTNSRDNAKTSVYFQMNSLKPDDTAVYYCAARYTAYIQSGMGYWGQGSQVTVSS	high polyreactivity
QVQLVESGGGLVQAGGSLRLSCAASGRIFGWYAMGWYRQAPGKERELVAAIRWSGGSTYADSVKGRFTISRDNAKNTVYLQMNSLKPEDTAVYYCAATYGSYRGVRYYWGQGTQVTVSS	high polyreactivity
QVQLVESGGGLVQAGGSLRLSCAASGSIFYPNAMGWYRQAPGKERELVADINTSGGDTYYADSVKGRFTISRDNAKNTVYLQMNSLKPEDTAVYYGAAEGYLYQYTSKPSDYWGQGTQVTVSS	low polyreactivity
QVQLVESGGGLVQAGGSLRLSCDASGSIFLVYAMGWYRQAPGKERELVAAITSGGSTNYADSVKGRFTISRDNAKNTVYFQMNSLKPEDTAVYNCAAERGDTAYRKYDYWGQGTQVTVSS	low polyreactivity
QVQHVESRGGLVQAGGSLRLSCAASGSTFGVYAMGRYRQAPGKERELDASISSGGRTKYADSVKGRFTISRDNAKNTVYLQMNSLKPEDTAVYFCAARIRYLGVRDNDNYYCGQGTQVTVSS	low polyreactivity
QVQLVESGGGLVQAGGRLRLSCAASGRTFYSYTMGWYRPAPGKERELVAAIRYSGDRTYYADSVKGRFTISRDNAKNTVDLQMNSLKPEDTAVYYCGKAAPYPGSFYYWGQGTQVTVSS	low polyreactivity
QVQIVESGGGLVQAGGSLRLSSAASGSIFPAYAMGWYSLAPWKERELVASITGSGGTTYYADSVKGRFTISRDNAKNTGYLQMNSLKPVDTADNYCNARYYVYSATVDRYGYWGQGSQVTVSS	high polyreactivity
